We go through three substances from US20150315289A1.

Test [1] has as its target human MUC5AC (native mucin) (human) (UniProt P98088). The experiment in a line: elution analysis of 111In-IMP-288/TF10 with excess mucin.
Test [2] shares this target. Description: binding of radioiodinated TF10 to MUC5AC (not shown).
The target in test [3] is IMP-288 di-HSG hapten-peptide. The experiment in a line: elution analysis of radiolabeled peptide with TF10 (not shown).
Test [4] deals with human MUC5AC (native mucin) (human) (UniProt P98088). Description: ELISA on target mucin antigen. In general terms: ELISA stands for enzyme-linked immunosorbent assay.
Test [5] shares this target. Description: sandwich EIA: hPAM4 capture of antigen from CPM1, murine MAb probe at 10 µg/mL.
Test [6] has the same target. Description: inhibition EIA on CPM1-coated plates; competitor hPAM4 at […].

In test [1], “TF10 bispecific ([hPAM4]2 x h679) DNL construct (bispecific antibody)” returned a percent of TF10-bound 111In-IMP-288 eluting at higher molecular weight with excess mucin of 92%. Moreover, the immunoreactive fraction in test [2] amounted to 87%. In test [3], this substance showed a percent of 111In-IMP-288 bound of 90%.

What is called EC50 is the concentration at which the effect is half-maximal. A lower EC50 goes with higher potency in that assay. In test [4], PAM4-F(ab′)2 yielded an EC50 of 1.83 nM.

The term Kd denotes the free concentration of one partner at which half of the binding sites on the other are occupied at equilibrium, for simple one-to-one binding. The low end stands for higher affinity, the high end for lower affinity. In the case of “45M1 anti-MUC5AC mouse monoclonal antibody”, in test [5], the dissociation constant Kd was determined as 14.3 µg/mL. Also, in test [6], the ICmax (maximal inhibition) came to 25.5%.
